Tests used:
[1] = molecular target: T1, HPV 11 E7 protein (human papillomavirus type 11, UniProt P04020 1-98); assay: direct ELISA, coated recombinant E7, biotinylated antibody
T1 construct: also called low-risk HPV type 11 E7
T1 sequence: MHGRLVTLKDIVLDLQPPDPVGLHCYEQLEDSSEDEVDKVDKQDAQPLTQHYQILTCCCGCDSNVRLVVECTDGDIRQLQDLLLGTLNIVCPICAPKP

[2] = molecular target: T2, HPV 16 E7 derived synthetic 13mer peptide 43 (amino acids 85 to 97) (human papillomavirus type 16); assay: peptide microarray, anti-rabbit-Cy5
T2 construct: Immobilised on a peptide microarray
T2 peptide: GTLGIVCPICSQK

[3] = molecular target: T3, HPV 16 E7 derived synthetic 13mer peptide 44 (amino acids 86 to 98) (human papillomavirus type 16); assay: peptide microarray, anti-rabbit-Cy5
T3 construct: Immobilised on a peptide microarray
T3 peptide: TLGIVCPICSQKP

[4] = molecular target: T4, HPV 16 E7 mutant C58G (human papillomavirus type 16, UniProt P03129 1-98); assay: indirect immunofluorescence on transiently transfected U-2OS cells
T4 sequence: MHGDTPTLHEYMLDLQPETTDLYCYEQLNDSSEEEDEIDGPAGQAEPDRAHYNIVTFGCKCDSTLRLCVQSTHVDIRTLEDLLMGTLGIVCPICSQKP

[5] = molecular target: T5, HPV 16 E7 mutant C91G (human papillomavirus type 16, UniProt P03129 1-98); assay: as above
T5 sequence: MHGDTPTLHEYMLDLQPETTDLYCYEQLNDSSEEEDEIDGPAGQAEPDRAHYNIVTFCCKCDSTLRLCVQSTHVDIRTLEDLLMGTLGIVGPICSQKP

[6] = molecular target: T6, HPV 16 E7 mutant C58G/C91G (human papillomavirus type 16, UniProt P03129 1-98); assay: as above
T6 sequence: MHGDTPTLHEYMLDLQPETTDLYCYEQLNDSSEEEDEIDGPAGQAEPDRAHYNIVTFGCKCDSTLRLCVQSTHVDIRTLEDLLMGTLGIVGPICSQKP

[7] = molecular target: T7, HPV 18 E7 protein (human papillomavirus type 18, UniProt P06788 1-105); assay: confocal immunofluorescence on U-2OS cells overexpressing E7
T7 construct: also called E7 protein of HPV 18
T7 sequence: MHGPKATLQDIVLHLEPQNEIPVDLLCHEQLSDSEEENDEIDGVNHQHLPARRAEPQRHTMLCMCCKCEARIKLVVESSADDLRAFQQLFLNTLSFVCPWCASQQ

[8] = molecular target: T8, HPV 45 E7 protein (human papillomavirus type 45, UniProt P21736 1-106); assay: as above
T8 construct: also called E7 protein of HPV 45
T8 sequence: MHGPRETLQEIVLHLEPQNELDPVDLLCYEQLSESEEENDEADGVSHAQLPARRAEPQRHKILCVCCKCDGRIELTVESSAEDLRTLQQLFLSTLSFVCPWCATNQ

B1: monoclonal anti-HPV 16 E7 antibody of the present invention (rabbit monoclonal, hybridoma Klon 42-3-78, DSM ACC3034) (antibody, V domains shown)
VH: QSLEESGGRLVTPGGSLTLTCTVSGIDLSTYEISWVRQAPGKGLEWIGIIGTSANTVYASWAKGRFTISKSSTTVDLRVTSLTTEDTATYFCARAYDEYGIHAFHPWGPGTLVTVSS
VL: AQVLTQTPSPVSAAVGGTVTINCQASQSVYNAKNLAWYQQKPGQPPKLLIYQASTLASGVPSRFKGSGSGTQFTLTISGVQCDDAATYYCQGEFSCSSADCNVFGGGTEVVVKG
notes: Rabbit IgG purified from hybridoma supernatant on Protein G; used plain or biotinylated; also called monoclonal antibody against HPV 16 E7; RabMab
B1: no binding (tested: 2.5 and 10 ng coated E7 protein) [1]; binds [2]; binds [3]. B1: no binding [4]; no binding [5]; no binding [6]. B1: no binding (tested: 25 µg/ml) [7]; no binding (tested: 25 µg/ml) [8].
